B1: Pistol ribozyme (parent)
chain: GGGUCGUUGUUCCAUAAUCGCGUGGAUAUGGCACGCAAGUUUCUACCGGGCACCGUAAAUGUCCGACUGGAGCCGUUCGGGCGGCUAUAAACAGACCUCAGGCCCGAAGCGUGGCGGCACCUGCCGCCGGUGGUAAAAAAGAUCGGAAGAGCACACGUCU

Variants of: B1
Test: aptazyme ON/OFF ratio, guanine; higher = stronger switching; co-transcriptional cleavage with and without guanine

| Variant | aptazyme ON/OFF ratio |
| --- | --- |
| GGGUCGCUACGCCAUAAUCGCGUGGAUAUGGCACGCAAGUUUCUACCGGGCACCGUAAAUGUCCGACUGGAGCCGUUCGGGCGGCUAUAAACAGACCUCAGGCCCGAAGCGUGGCGGCACCUGCCGCCGGUGGUAAAAAAGAUCGGAAGAGCACACGUCU [U7C G9A U10C U11G] | 1.42 |
| GGGUCGCUACCCCAUAAUCGCGUGGAUAUGGCACGCAAGUUUCUACCGGGCACCGUAAAUGUCCGACUGGAGCCGUUCGGGCGGCUAUAAACAGACCUCAGGCCCGAAGCGUGGCGGCACCUGCCGCCGGUGGUAAAAAAGAUCGGAAGAGCACACGUCU [U7C G9A U10C U11C] | 1.12 |
| GGGUCGCUACGAUAUAAUCGCGUGGAUAUGGCACGCAAGUUUCUACCGGGCACCGUAAAUGUCCGACUGGAGCCGUUCGGGCGGCUAUAAACAGACCUCAGGCCCGAAGCGUGGCGGCACCUGCCGCCGGUGGUAAAAAAGAUCGGAAGAGCACACGUCU [U7C G9A U10C U11G C12A C13U] | 1.08 |
| GGGUCGCUACGAAAUAAUCGCGUGGAUAUGGCACGCAAGUUUCUACCGGGCACCGUAAAUGUCCGACUGGAGCCGUUCGGGCGGCUAUAAACAGACCUCAGGCCCGAAGCGUGGCGGCACCUGCCGCCGGUGGUAAAAAAGAUCGGAAGAGCACACGUCU [U7C G9A U10C U11G C12A C13A] | 1.21 |
| GGGUCGCUACGAGAUAAUCGCGUGGAUAUGGCACGCAAGUUUCUACCGGGCACCGUAAAUGUCCGACUGGAGCCGUUCGGGCGGCUAUAAACAGACCUCAGGCCCGAAGCGUGGCGGCACCUGCCGCCGGUGGUAAAAAAGAUCGGAAGAGCACACGUCU [U7C G9A U10C U11G C12A C13G] | 1.15 |
| GGGUCGCUACCUUAUAAUCGCGUGGAUAUGGCACGCAAGUUUCUACCGGGCACCGUAAAUGUCCGACUGGAGCCGUUCGGGCGGCUAUAAACAGACCUCAGGCCCGAAGCGUGGCGGCACCUGCCGCCGGUGGUAAAAAAGAUCGGAAGAGCACACGUCU [U7C G9A U10C U11C C12U C13U] | 1.07 |
| GGGUCGCUACCUAAUAAUCGCGUGGAUAUGGCACGCAAGUUUCUACCGGGCACCGUAAAUGUCCGACUGGAGCCGUUCGGGCGGCUAUAAACAGACCUCAGGCCCGAAGCGUGGCGGCACCUGCCGCCGGUGGUAAAAAAGAUCGGAAGAGCACACGUCU [U7C G9A U10C U11C C12U C13A] | 1.04 |
| GGGUCGCUACCUGAUAAUCGCGUGGAUAUGGCACGCAAGUUUCUACCGGGCACCGUAAAUGUCCGACUGGAGCCGUUCGGGCGGCUAUAAACAGACCUCAGGCCCGAAGCGUGGCGGCACCUGCCGCCGGUGGUAAAAAAGAUCGGAAGAGCACACGUCU [U7C G9A U10C U11C C12U C13G] | 1.04 |
| GGGUCGCUACCCAAUAAUCGCGUGGAUAUGGCACGCAAGUUUCUACCGGGCACCGUAAAUGUCCGACUGGAGCCGUUCGGGCGGCUAUAAACAGACCUCAGGCCCGAAGCGUGGCGGCACCUGCCGCCGGUGGUAAAAAAGAUCGGAAGAGCACACGUCU [U7C G9A U10C U11C C13A] | 1.01 |
| GGGUCGCUACCCGAUAAUCGCGUGGAUAUGGCACGCAAGUUUCUACCGGGCACCGUAAAUGUCCGACUGGAGCCGUUCGGGCGGCUAUAAACAGACCUCAGGCCCGAAGCGUGGCGGCACCUGCCGCCGGUGGUAAAAAAGAUCGGAAGAGCACACGUCU [U7C G9A U10C U11C C13G] | 1.02 |
| GGGUCGCUACCCUAUAAUCGCGUGGAUAUGGCACGCAAGUUUCUACCGGGCACCGUAAAUGUCCGACUGGAGCCGUUCGGGCGGCUAUAAACAGACCUCAGGCCCGAAGCGUGGCGGCACCUGCCGCCGGUGGUAAAAAAGAUCGGAAGAGCACACGUCU [U7C G9A U10C U11C C13U] | 1.03 |
| GGGUCGCUACGCGAUAAUCGCGUGGAUAUGGCACGCAAGUUUCUACCGGGCACCGUAAAUGUCCGACUGGAGCCGUUCGGGCGGCUAUAAACAGACCUCAGGCCCGAAGCGUGGCGGCACCUGCCGCCGGUGGUAAAAAAGAUCGGAAGAGCACACGUCU [U7C G9A U10C U11G C13G] | 1.22 |
| GGGUCGCUACGCAAUAAUCGCGUGGAUAUGGCACGCAAGUUUCUACCGGGCACCGUAAAUGUCCGACUGGAGCCGUUCGGGCGGCUAUAAACAGACCUCAGGCCCGAAGCGUGGCGGCACCUGCCGCCGGUGGUAAAAAAGAUCGGAAGAGCACACGUCU [U7C G9A U10C U11G C13A] | 1.19 |
| GGGUCGCUACACUAUAAUCGCGUGGAUAUGGCACGCAAGUUUCUACCGGGCACCGUAAAUGUCCGACUGGAGCCGUUCGGGCGGCUAUAAACAGACCUCAGGCCCGAAGCGUGGCGGCACCUGCCGCCGGUGGUAAAAAAGAUCGGAAGAGCACACGUCU [U7C G9A U10C U11A C13U] | 1.33 |
| GGGUCGCUACACAAUAAUCGCGUGGAUAUGGCACGCAAGUUUCUACCGGGCACCGUAAAUGUCCGACUGGAGCCGUUCGGGCGGCUAUAAACAGACCUCAGGCCCGAAGCGUGGCGGCACCUGCCGCCGGUGGUAAAAAAGAUCGGAAGAGCACACGUCU [U7C G9A U10C U11A C13A] | 1.18 |
| GGGUCGCUACACGAUAAUCGCGUGGAUAUGGCACGCAAGUUUCUACCGGGCACCGUAAAUGUCCGACUGGAGCCGUUCGGGCGGCUAUAAACAGACCUCAGGCCCGAAGCGUGGCGGCACCUGCCGCCGGUGGUAAAAAAGAUCGGAAGAGCACACGUCU [U7C G9A U10C U11A C13G] | 1.12 |
| GGGUCGCUACGUGAUAAUCGCGUGGAUAUGGCACGCAAGUUUCUACCGGGCACCGUAAAUGUCCGACUGGAGCCGUUCGGGCGGCUAUAAACAGACCUCAGGCCCGAAGCGUGGCGGCACCUGCCGCCGGUGGUAAAAAAGAUCGGAAGAGCACACGUCU [U7C G9A U10C U11G C12U C13G] | 1.34 |
| GGGUCGCUACGUUAUAAUCGCGUGGAUAUGGCACGCAAGUUUCUACCGGGCACCGUAAAUGUCCGACUGGAGCCGUUCGGGCGGCUAUAAACAGACCUCAGGCCCGAAGCGUGGCGGCACCUGCCGCCGGUGGUAAAAAAGAUCGGAAGAGCACACGUCU [U7C G9A U10C U11G C12U C13U] | 1.32 |

| Variant | aptazyme ON/OFF ratio |
| --- | --- |
| GGGUCGCUACGUAAUAAUCGCGUGGAUAUGGCACGCAAGUUUCUACCGGGCACCGUAAAUGUCCGACUGGAGCCGUUCGGGCGGCUAUAAACAGACCUCAGGCCCGAAGCGUGGCGGCACCUGCCGCCGGUGGUAAAAAAGAUCGGAAGAGCACACGUCU [U7C G9A U10C U11G C12U C13A] | 1.31 |
| GGGUCGCUACCGCAUAAUCGCGUGGAUAUGGCACGCAAGUUUCUACCGGGCACCGUAAAUGUCCGACUGGAGCCGUUCGGGCGGCUAUAAACAGACCUCAGGCCCGAAGCGUGGCGGCACCUGCCGCCGGUGGUAAAAAAGAUCGGAAGAGCACACGUCU [U7C G9A U10C U11C C12G] | 1.2 |
| GGGUCGCUACCACAUAAUCGCGUGGAUAUGGCACGCAAGUUUCUACCGGGCACCGUAAAUGUCCGACUGGAGCCGUUCGGGCGGCUAUAAACAGACCUCAGGCCCGAAGCGUGGCGGCACCUGCCGCCGGUGGUAAAAAAGAUCGGAAGAGCACACGUCU [U7C G9A U10C U11C C12A] | 1.34 |
| GGGUCGCUACCUCAUAAUCGCGUGGAUAUGGCACGCAAGUUUCUACCGGGCACCGUAAAUGUCCGACUGGAGCCGUUCGGGCGGCUAUAAACAGACCUCAGGCCCGAAGCGUGGCGGCACCUGCCGCCGGUGGUAAAAAAGAUCGGAAGAGCACACGUCU [U7C G9A U10C U11C C12U] | 1.05 |
| GGGUCGCUACCAUAUAAUCGCGUGGAUAUGGCACGCAAGUUUCUACCGGGCACCGUAAAUGUCCGACUGGAGCCGUUCGGGCGGCUAUAAACAGACCUCAGGCCCGAAGCGUGGCGGCACCUGCCGCCGGUGGUAAAAAAGAUCGGAAGAGCACACGUCU [U7C G9A U10C U11C C12A C13U] | 1.16 |
| GGGUCGCUACCAGAUAAUCGCGUGGAUAUGGCACGCAAGUUUCUACCGGGCACCGUAAAUGUCCGACUGGAGCCGUUCGGGCGGCUAUAAACAGACCUCAGGCCCGAAGCGUGGCGGCACCUGCCGCCGGUGGUAAAAAAGAUCGGAAGAGCACACGUCU [U7C G9A U10C U11C C12A C13G] | 1.15 |
| GGGUCGCUACCAAAUAAUCGCGUGGAUAUGGCACGCAAGUUUCUACCGGGCACCGUAAAUGUCCGACUGGAGCCGUUCGGGCGGCUAUAAACAGACCUCAGGCCCGAAGCGUGGCGGCACCUGCCGCCGGUGGUAAAAAAGAUCGGAAGAGCACACGUCU [U7C G9A U10C U11C C12A C13A] | 1.07 |
| GGGUCGCUACAUGAUAAUCGCGUGGAUAUGGCACGCAAGUUUCUACCGGGCACCGUAAAUGUCCGACUGGAGCCGUUCGGGCGGCUAUAAACAGACCUCAGGCCCGAAGCGUGGCGGCACCUGCCGCCGGUGGUAAAAAAGAUCGGAAGAGCACACGUCU [U7C G9A U10C U11A C12U C13G] | 1.22 |
| GGGUCGCUACAUUAUAAUCGCGUGGAUAUGGCACGCAAGUUUCUACCGGGCACCGUAAAUGUCCGACUGGAGCCGUUCGGGCGGCUAUAAACAGACCUCAGGCCCGAAGCGUGGCGGCACCUGCCGCCGGUGGUAAAAAAGAUCGGAAGAGCACACGUCU [U7C G9A U10C U11A C12U C13U] | 1.39 |
| GGGUCGCUACGACAUAAUCGCGUGGAUAUGGCACGCAAGUUUCUACCGGGCACCGUAAAUGUCCGACUGGAGCCGUUCGGGCGGCUAUAAACAGACCUCAGGCCCGAAGCGUGGCGGCACCUGCCGCCGGUGGUAAAAAAGAUCGGAAGAGCACACGUCU [U7C G9A U10C U11G C12A] | 1.28 |
| GGGUCGCUACGGCAUAAUCGCGUGGAUAUGGCACGCAAGUUUCUACCGGGCACCGUAAAUGUCCGACUGGAGCCGUUCGGGCGGCUAUAAACAGACCUCAGGCCCGAAGCGUGGCGGCACCUGCCGCCGGUGGUAAAAAAGAUCGGAAGAGCACACGUCU [U7C G9A U10C U11G C12G] | 1.28 |
| GGGUCGCUACGUCAUAAUCGCGUGGAUAUGGCACGCAAGUUUCUACCGGGCACCGUAAAUGUCCGACUGGAGCCGUUCGGGCGGCUAUAAACAGACCUCAGGCCCGAAGCGUGGCGGCACCUGCCGCCGGUGGUAAAAAAGAUCGGAAGAGCACACGUCU [U7C G9A U10C U11G C12U] | 1.45 |
| GGGUCGCUACGGGAUAAUCGCGUGGAUAUGGCACGCAAGUUUCUACCGGGCACCGUAAAUGUCCGACUGGAGCCGUUCGGGCGGCUAUAAACAGACCUCAGGCCCGAAGCGUGGCGGCACCUGCCGCCGGUGGUAAAAAAGAUCGGAAGAGCACACGUCU [U7C G9A U10C U11G C12G C13G] | 1.11 |
| GGGUCGCUACGGAAUAAUCGCGUGGAUAUGGCACGCAAGUUUCUACCGGGCACCGUAAAUGUCCGACUGGAGCCGUUCGGGCGGCUAUAAACAGACCUCAGGCCCGAAGCGUGGCGGCACCUGCCGCCGGUGGUAAAAAAGAUCGGAAGAGCACACGUCU [U7C G9A U10C U11G C12G C13A] | 1.14 |
| GGGUCGCUACGGUAUAAUCGCGUGGAUAUGGCACGCAAGUUUCUACCGGGCACCGUAAAUGUCCGACUGGAGCCGUUCGGGCGGCUAUAAACAGACCUCAGGCCCGAAGCGUGGCGGCACCUGCCGCCGGUGGUAAAAAAGAUCGGAAGAGCACACGUCU [U7C G9A U10C U11G C12G C13U] | 1.09 |
| GGGUCGCUACCGUAUAAUCGCGUGGAUAUGGCACGCAAGUUUCUACCGGGCACCGUAAAUGUCCGACUGGAGCCGUUCGGGCGGCUAUAAACAGACCUCAGGCCCGAAGCGUGGCGGCACCUGCCGCCGGUGGUAAAAAAGAUCGGAAGAGCACACGUCU [U7C G9A U10C U11C C12G C13U] | 1.04 |
| GGGUCGCUACCGGAUAAUCGCGUGGAUAUGGCACGCAAGUUUCUACCGGGCACCGUAAAUGUCCGACUGGAGCCGUUCGGGCGGCUAUAAACAGACCUCAGGCCCGAAGCGUGGCGGCACCUGCCGCCGGUGGUAAAAAAGAUCGGAAGAGCACACGUCU [U7C G9A U10C U11C C12G C13G] | 1.12 |
| GGGUCGCUACCGAAUAAUCGCGUGGAUAUGGCACGCAAGUUUCUACCGGGCACCGUAAAUGUCCGACUGGAGCCGUUCGGGCGGCUAUAAACAGACCUCAGGCCCGAAGCGUGGCGGCACCUGCCGCCGGUGGUAAAAAAGAUCGGAAGAGCACACGUCU [U7C G9A U10C U11C C12G C13A] | 1.09 |
